The nanobody polyreactivity screen of Harvey et al. (2022)

Assay: yeast display, Sf9 membrane polyspecificity reagent, FACS + sequencing; frameworks hold sequencing errors
Summary of the method: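 Genes from sorted yeast were amplified by colony PCR, read by MiSeq 2 × 250 sequencing and filtered on CDR length. These cells carried a synthetic nanobody library in Saccharomyces cerevisiae BJ5465 and were sorted by FACS into low and high (top ~1%) gates on anti-HA and streptavidin fluorescence. Polyreactivity is labelled according to the gate of origin.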

Sequence | polyreactivity (PSR sort gate)
QVQLVESGGGLVQAGGSLRLSCAASGRIFAGYTMGWYRPAPGKERELVAAIRSSGRTHYADSVKGRFTISRDNAKNTVYLQMYSLKPEDTAVYYCAARWTYTFAYRFDYWGQGTQVTVSS | high polyreactivity
QVQLVESGGGLVQAGGSLRLSCAASGSTFTHYAMGWYRQAPGKERELVAAISWGGGTTRYADSVKGRFTISRDNAKNTVYLQMNSLKPEDTAVYYCAKRVRTGSVGNFNYWGQGTQVTVSS | high polyreactivity
QVQLVESGGGLVQAGGSLRLSCAASGFTFRLNAMGWYRQAPGPERELVAAITRSGGNTYYADSVKGRFTIPRDNAKNTVYLQMNSLKPEDTAVYYCAARYFYWFRPTEYYYWGQGTQLTVSS | high polyreactivity
QVQLVESGGGLVQAGGSLRLSCAASGSILLYYSMGWYIQAPGKERELVARISITRDSTYYADSVKGRFTISRDNAKNTVYLQMYSLNPEDTAVYFCAADPVLHYYPSYYTGALDYYWGQGTQVTVSS | low polyreactivity
QVQLVESGGGLVQAGGSLRLSCAASGSIIRGNAMGWYSQAPGKERELVATITNGGSTNYADSVKGRFTISRDNAKNTVYFQMNSMKPEDTAVYYCNADHSYHIASTRHVDFWGQGTQVTVSS | low polyreactivity
QVQLVESWGGLVQAGGTLRLSCAASGSTFTLNCMGWYRQAPGKERELVASITWSGGSTYYADSVKGRFTISRDNAKNTVYLQMNSLKPEDTAVYYCADDEKLYITGYDYWGQGTQVTVSS | low polyreactivity
QVQLVESGGGLVQAGGSLRLSCAASGSTFGEYAMGWYRQAPGKERELVASITFSAGSTDYADSVKGRFTISRDNAKNTVYLQMNSLKPEDTAVYYCAADGWWPWEYDYWGQGTQVTVSS | low polyreactivity
QVQHVESGGGLVQAGGSLRLSCAASGSTFLYYAMGWSRQAPGKERELVARITTRVGRTYYADSVKGRFTISRDNAKNTVYLQMNSLKPEDTAVYYCAAYPDYSYYYWGQGTQVTVSS | high polyreactivity
QVQLVESGGGLDQAGGSLRLSCAASGITVTSYVMGWYRQAHWKERELVAAIRWSGGRTYYADSVKGRFTISRDNAKNTVYLQMNSLKPEDTAVYYCNRVTRSHVDYWGQGTQVTVSS | high polyreactivity
QVQLVESGGGLVQAGGSLRLSCAASGFTISLYTMAWYRQAPGKERELVASNTRRGGSTYYADSVKGRFTISRDYAKNTVYLQMNSLKTEDTAGYYCARAARSDSIFKPRRGYATDGYWGQVTQVTVSS | high polyreactivity
QVQLVESGGGLVLAGGSLRLSCAASGNTFRYYAMGWYRQAPGKERELVADITIGGSTYYADSVKGRFTISRDNAKNTVYLQMNSLKPEDTAVYYCATDPDWGYYDAPYGYWGQGTQVTVSS | low polyreactivity
QVQLVESGGGLDQAGGSLRLSCAASGKTFGNYGMGWYRQAPGKERELVAAISWTGGSTYYADSVKGRFTISRDNAKNTVYLQMNSMKPEDTAVYSCNKRPYLLFDYWGQGTQVTVSS | high polyreactivity
QVQLVESGGGLVQAGGSLSLSCAASGSTFYANAMGWYRQAPGKEREFVAAISYNGGSTYYADSVKGRFTISRDNAKNTVYFQMNSLKPEDTAVYYCNVDYDYPYYEVDYWGQGTQVTVSS | low polyreactivity
QVQLVESGGGLVQAGGSLRLSCAASGFTFSSYAMGWYRQAPGKERELVAAITRSGGNTYYADSVKGRFTISRDYAKNTVYLQMNSLKPEDTAVYDCAAPGKGISPSHYYWGQGTQVTVSS | high polyreactivity
QVQLVESGGGLVQAGGSLRLSCAASGSIIYQYAMGWYRQAPGKERELVAAITWSGGSTYYADSVKGRFTISRDNAKNTVYLQMNSLKPEDTAVYYCAAYAYGGRINGYRTYRYNYWGQGTQVTVSS | high polyreactivity
QVQLVESGGGLVQAGGSLRLSCAASGFTFWQYAMGSSRTAPGKERELVAAISSRGGSTYYADSVKGRFTISRDKAKNTVYLQMNSLKPEDTAVYYCNARANGFKDGYWGQGTQVTVSS | high polyreactivity
QVQLVESGGGLVQAGGSLRLSCAASGLTFHRYAMGWYRQAPGKERELVADISSGDSTNYADSVKGRFTISRDNAKNTVYLQMTSLKPEDTAVYYCNTDGYIYRYRFDYWGQGTQVTVSS | low polyreactivity
QVQLVESVGGLVQAGGSLRLSCAASGNTFHTNAMGWYRQAPGKERELVAAITGGGSTYYADSVKGRFTISRDNAKNTVYLQMNSLKPEDTAVYYFNTDVPYGLDVSDTIDYYYWGQGTQVTVSS | low polyreactivity
QVQLVESGGGLVQAGGSLRLSCAASGRIFVIYAKGWYRQAPGKERELVAVISSDGSTYYADSVKGRFTISRDNAKNTVYLQMNSLKPEDTAVYYCAADRIGRYRPYIGWVVRSYYWGQGTQVTVSS | low polyreactivity
QVQLVESGGGLVQAGGSLRLSCAASGFIFQPYAMGWYRPAPGKERELVAGITGSGGNTYYADSVKGRFTISRDNAKNTVYLQMNSLKPEDTAVYYCAARRHIFLLIIWSGRVDYWGQGTEVTVSS | low polyreactivity
QVQLVESGGGLVQAGGSLRLSCAASGRIFWYYAMGWYRQAPGKEWELVATITYSGVRTYYADSVKGRFTISRDNAKNTVYLQMNSLKPEDTAVYYCAAVPGASVYGYYWKFGYWGQGTQVTVSS | high polyreactivity
QVQLVESGAGLVQAGGSLRLTCAASGSTFNRYVMGWYRQAPGKERDFVATISQGGGSTYYADSVKGRFTISRDNAKNTVYLHMNSLKPDVTAVYYCAAVSTRQYRYPHEYWGQGTQVTVSS | high polyreactivity

Sequence | polyreactivity (PSR sort gate)
QVQLVESGGGLVQAGGSLRLSCAPSGSIFVYYAMGWYIQAPGKERELVAAITTSGGSTYYADSVKGRFTISRDNAKNTVYLQMNSLKPEDTAVYYCAAELLAWYWSFSVPCPYDYWGQGTQVTVSS | low polyreactivity
QVQLVETGGGLVKAGGSLRLSCGASGFIFTYNAMGWYRQAPGKERELVAAISGSGGRTYYADSVKGRFTISRDNAKNTVYLQMNSLKPEDTAVYYWNRDPKSLSYGSRGFGYWGLGTQVTVSS | high polyreactivity
QVQLVESGGGLVQAGGSHRLSCAASGLTFFTYAMGWYRQAPGKERELVATISSRGGRTYYADSVKGRFTISRDNAKNTVYLQMNSLKPEDTAVYYCAARGVWKSKHNYWGQGTQVTVSS | high polyreactivity
QVQLVESGGGLVQAGGSLRLSCAASGRTFYWNAMGWSRQAPGKERELVASINCGGSTYYADSVKGRFTISRDNAKNTVYLQMNSLKPEGTAVYYCNAESYEFHRAWGDYDYWGQGTQVTVSS | low polyreactivity
QVQLVESGGGLVQAGGSLRLSCAASGFTFKYNVMGWYIQAPGKERELVAAISSAGNTNYADSVKGRFTISRDNAKNTVYLQMNSLKPEDTAVYFCAKRRDTLYVGVEGYYWGQGTQVTVSS | high polyreactivity
QVQLVESGGGFVQAGGSLRLSCAASGSIFVKYAMGWYRQAPGTERELVAAISRSGDSTYYADSVKGRFTLSRDNAKNTVYLQMNSLNPEDTAAYSCAAYSGYGGVSMYYWGQGTQVTVSS | low polyreactivity
QVQLVESGGGLVQSGGSLRLSCAASGSTFKFYAMGWYRQAPGKEREFVAAITSSGDSTYYADSVKGRFTISRDNAKNTVYLQMNSLKPEDTAVYYCAARLRWRYSYDYWGQGTQVTVSS | high polyreactivity
QVQLVESGGGLVQAGGSLRLSCAASGSIFSFYAMGWYRQAPGKERELVADITWSGGRTYYADSVKGRFTISRDNAKNTVYLQMNSLKPEDTAVYYCNTELYLSRYKYVWSFDYWGQGTQVTVSS | low polyreactivity
QVQLVESGGGLVQAGGSLRLSCAASGNTFPVYAMGWYRKASGKERELVATITSGGSTNYADSVKGRFTFSRDNAKNTVYLQMNSLKPEDTAVYYCARRAVYSKRRYDYWGHGTQVTVSS | low polyreactivity
QVQLVESGGGLVQAGGSLRLSCAASGLTFDYYAMGWYRQAPGKERELVAAIDWSGGSTYYADSVKGRFTISRDNAMNTVYFQMNSLKPEDSAVYYCATESDDSGMDYWGQGTQVTVSS | low polyreactivity
QVHLVESGGGLVPAGGSLRLSCAASGGIFIFYAMGWYRQAPGKERELVAAISNVSSTNYADSVKGRFTISRDNAKNTVYLQMNSLKPEDTAVYYCNAVGVPSEYYSWGQGTQVTVSS | low polyreactivity
QVQLVESGGGLVQAGGSLRLSCAASGTTFNAYAMGWYRQAPGKDRELVAAISTSGGRTYYADSVKGRYTISRDNAKNTVYLQMNSLKPEDTAVNYCAAVLGRSPGLNYWGQGTQVTVSS | high polyreactivity
QVQLVESGGGLVQAGGSLRLSCAASGNIRNYGLGWYRQAPGKERELVAAITVSGSRTYYADSVKGRFTISRDNAKNTVYLQMNSLKPEDTAVSYCAARGYNTLTRYDYWGQGTQVTVTS | high polyreactivity
QVQLVESGGGLVQAGGSLRLSCAASGRIFATYVMGGYRQAPGKERELVATISSGGSTNYADSVKGRFTISRDNAKNTVYLQMNSLKPEDTAVYYCAVVDGNYWYVKGDYWGQGTQVTVSS | low polyreactivity
QVQLVESGGGLVQAGGSLRLSCAASGITFHWYAMGWYRQAPGKERELVAAITSSGDSTFYADSVKGRFTISRDNAKNSVYLQMNSLKPEDTAVYYCAVDVYVGYWGRLYYWGQGTQVTVSS | low polyreactivity
QVQLVESGGGLVQAGGSLRLSCAASGFTFSSYAMGWYRQAPGKERELVAAITTRGGTFYADSVKGRFTISRDNAKNTVYLQMNSLKPEDTAVYYCAARRVSGRGYWGQGTQVTVSS | high polyreactivity
QVQLLESGGGLVQAGGSLRLSCAASGFTFTYYAMGWYRQAPGKERELVAAISRRGGSTYYADSVKGRFTISRDNAKNTVYLQMNSLKPEDTAVYYCARDYNSAVGMVYWGQGTQVTVSS | high polyreactivity
QGQLVESGGALVQAGGSLRLSCAASGFILPIYAMAWYRQAPGKEREIVAAITWTGGSTYYADSVKGRFTISRDNAKNTVYLQMISLKPEDTAVYYCNVVSDIRLYYRYAYDYWGQGTQVTVSS | high polyreactivity
QVQLVESGGGLVQAGGSLRLSCAASGSIFVFYAMGWYRQAPGKERELVAAISSVGSTYYADSVKGRFTISRDNAKNTVYLQMNSLKPEDTAVYYCAAVTYYSGYYWGQGTQVTVSS | low polyreactivity
QVQLVESGGGLVQAGGSLRLSCAASGITFEKYAMGGYRQAPGKERELVAAITSSGGSTYYADSVKGRFTISRDNAKNTVYLQMNSLKPEDTAVYYCKARYYYADRTSGGYYYWGQGTQVTVSS | high polyreactivity
QVQLVESGGGLVQAGGSLRLSCAASGSTFSSYVMGWYRQAPGKERELVAGITRGGRTYYADSVKGRFTISRDNAKNTVYLQMNSLKPEDTAVYYCAKDQGGVHELDYWGQGTQVTVSS | low polyreactivity
